Laboratory results from patent US20230235090A1 (HARBOUR BIOMED US, published 2023).

T1: mouse B7-H4 (mouse, UniProt Q7TSP5 25-257)
T1 construct: whole, on cells; also called CHO-K1/m B7-H4; CHO-K1/mB7-H4
T1 sequence (looked up): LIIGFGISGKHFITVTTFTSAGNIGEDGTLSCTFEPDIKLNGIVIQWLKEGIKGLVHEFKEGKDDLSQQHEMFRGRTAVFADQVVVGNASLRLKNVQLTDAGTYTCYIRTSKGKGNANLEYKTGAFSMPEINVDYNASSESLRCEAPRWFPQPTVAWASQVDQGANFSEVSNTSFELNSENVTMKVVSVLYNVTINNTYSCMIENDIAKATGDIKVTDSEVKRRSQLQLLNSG

T2: cynomolgus monkey B7-H4 (cynomolgus monkey, UniProt A0A2K5U6P5 25-282)
T2 construct: whole, on cells; also called CHO-K1/cyno B7-H4; CHO-K1/cynoB7H4
T2 sequence: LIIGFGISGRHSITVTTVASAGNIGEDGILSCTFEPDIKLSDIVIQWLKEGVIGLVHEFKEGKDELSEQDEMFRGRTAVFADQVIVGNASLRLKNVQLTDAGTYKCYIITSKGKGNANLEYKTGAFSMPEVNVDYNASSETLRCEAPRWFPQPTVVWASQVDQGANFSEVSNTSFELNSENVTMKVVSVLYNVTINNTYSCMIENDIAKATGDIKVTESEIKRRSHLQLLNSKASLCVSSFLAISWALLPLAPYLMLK

T3: human B7-H4 (human, UniProt Q7Z7D3 25-282)
T3 construct: whole, on cells; also called VTCN1; SK-BR-3 cell line highly expressing B7-H4
T3 sequence (looked up): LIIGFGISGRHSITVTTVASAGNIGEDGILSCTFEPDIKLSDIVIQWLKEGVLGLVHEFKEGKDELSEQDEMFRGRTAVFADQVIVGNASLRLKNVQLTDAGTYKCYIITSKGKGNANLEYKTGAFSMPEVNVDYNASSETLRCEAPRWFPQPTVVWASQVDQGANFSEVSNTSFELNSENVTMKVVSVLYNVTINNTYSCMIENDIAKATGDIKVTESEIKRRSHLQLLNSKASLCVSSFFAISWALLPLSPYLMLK


Tests used:
human 4-1BB [1] = target: T4, human 4-1BB (human, UniProt Q07011 24-255); assay: FACS, CHO-K1/hu 4-1BB cells [F]
T4 construct: whole, on cells; also called CD137; TNFRSF9
T4 sequence (Q07011 24-255): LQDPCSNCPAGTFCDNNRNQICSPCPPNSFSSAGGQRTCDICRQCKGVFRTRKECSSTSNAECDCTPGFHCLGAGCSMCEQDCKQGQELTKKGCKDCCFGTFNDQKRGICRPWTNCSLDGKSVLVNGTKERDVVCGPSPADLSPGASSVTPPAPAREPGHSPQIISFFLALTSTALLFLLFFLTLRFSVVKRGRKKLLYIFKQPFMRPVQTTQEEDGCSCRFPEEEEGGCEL
Experimental: (§1) This example is intended to investigate the in vitro binding activity of anti-human 4-1BB HCAb and H2L2 monoclonal antibodies to human and cynomolgus monkey 4-1BB. Antibody binding experiments at the cellular level were conducted using a CHO-K1 cell strain overexpressing human 4-1BB (CHO-K1-hu 4-1BB, Genescript) and a CHO-K1 cell strain overexpressing cynomolgus monkey 4-1BB (CHO-K1-cyno 4-1BB, Genescript). Briefly, the CHO-K1-hu 4-1BB and CHO-K1-cyno 4-1BB cells were digested and resuspended in DMEM complete medium, and the cell density was adjusted to 1×10⁶ cells/mL. […] The cells were incubated at 4° C. for 1 h away from light. Thereafter, the cells in each well were rinsed twice with 100 μL of pre-cooled PBS, and centrifuged at 500 g at 4° C. for 5 min, and then the supernatant was discarded. […] The plate was incubated away from light at 4° C. for 30 min. The cells in each well were rinsed twice with 100 μL of pre-cooled PBS, and centrifuged at 500 g at 4° C. for 5 min, and then the supernatant was discarded. Finally, the cells in each well were resuspended in 200 μL of pre-cooled PBS, and the fluorescence signal values were read using a BD FACS CANTOII.

cynomolgus monkey 4-1BB [2] = target: T5, cynomolgus monkey 4-1BB (cynomolgus monkey); assay: FACS, CHO-K1/cyno 4-1BB cells [E]
T5 construct: whole, on cells; also called CHO-K1-cyno 4-1BB; CHO-K1/cyno4-1BB
Experimental: as §1

mouse B7-H4 = target: T1, mouse B7-H4; assay: FACS, CHO-K1/m B7H4 cells [C]
Experimental: (§2) This example is intended to investigate the in vitro binding activity of anti-human B7-H4 H2L2 monoclonal antibody to human/cynomolgus monkey/mouse B7-H4. Antibody binding experiments at the cellular level were conducted using a CHO-K1 cell strain overexpressing cynomolgus monkey B7-H4 (CHO-K1/cyno B7-H4, prepared in-house by Harbour Biomed), a CHO-K1 cell strain overexpressing mouse B7-H4 (CHO-K1/m B7-H4, prepared in-house by Harbour Biomed) and an SK-BR-3 cell line highly expressing human B7-H4 (ATCC® HTB-30). Briefly, the CHO-K1/cyno B7-H4 cells, CHO-K1/m B7-H4 cells or SK-BR-3 cells were digested and resuspended with PBS containing 2% BSA. The cell density was adjusted to 1×10⁶ cells/mL. […] The cells were incubated at 4° C. for 2 h away from light. Thereafter, the cells in each well were rinsed twice with 100 μL of pre-cooled PBS containing 2% BSA, and centrifuged at 500 g at 4° C. for 5 min, and then the supernatant was discarded. […] The plate was incubated away from light at 4° C. for 1 h. The cells in each well were rinsed twice with 100 μL of pre-cooled PBS containing 2% BSA, and centrifuged at 500 g at 4° C. for 5 min, and then the supernatant was discarded. Finally, the cells in each well were resuspended in 200 μL of pre-cooled PBS containing 2% BSA, and the fluorescence signal values were read using an ACEA Novocyte3000 flow cytometer.

cynomolgus monkey B7-H4 = target: T2, cynomolgus monkey B7-H4; assay: FACS, CHO-K1/cyno B7H4 cells [B]
Experimental: as §2

human B7-H4 = target: T3, human B7-H4; assay: FACS, SK-BR-3 cells [A]
Experimental: as §2

human 4-1BB [3] = target: T4, human 4-1BB; assay: FACS, CHO-K1/hu 4-1BB cells [B]
Experimental: as §1

cynomolgus monkey 4-1BB [4] = target: T5, cynomolgus monkey 4-1BB; assay: FACS, CHO-K1/cyno 4-1BB cells [B]
Experimental: as §1

human 4-1BB [5] = target: T4, human 4-1BB; assay: FACS, CHO-K1/hu 4-1BB cells [E]
Experimental: Antibody binding experiments at the cellular level were conducted using a CHO-K1 cell strain overexpressing human 4-1BB (CHO-K1-hu 4-1BB, Genescript) and a CHO-K1 cell strain overexpressing cynomolgus monkey 4-1BB (CHO-K1-cyno 4-1BB, Genescript). Briefly, the CHO-K1-hu 4-1BB and CHO-K1-cyno 4-1BB cells were digested and resuspended in DMEM complete medium, and the cell density was adjusted to 1×10⁶ cells/mL. […] The cells were incubated at 4° C. for 1 h away from light. Thereafter, the cells in each well were rinsed twice with 100 μL of pre-cooled PBS, and centrifuged at 500 g at 4° C. for 5 min, and then the supernatant was discarded. […] The plate was incubated away from light at 4° C. for 30 min. The cells in each well were rinsed twice with 100 μL of pre-cooled PBS, and centrifuged at 500 g at 4° C. for 5 min, and then the supernatant was discarded. Finally, the cells in each well were resuspended in 200 μL of pre-cooled PBS, and the fluorescence signal values were read using a BD FACS CANTOII.

cynomolgus monkey 4-1BB [6] = target: T5, cynomolgus monkey 4-1BB; assay: FACS, CHO-K1/cyno 4-1BB cells [C]
Experimental: as §1

Binder	EC50 (mouse B7-H4) [nM]	Maximum MFI (mouse B7-H4) [MFI]	EC50 (cynomolgus monkey B7-H4) [nM]	Maximum MFI (cynomolgus monkey B7-H4) [MFI]	EC50 (human B7-H4) [nM]	Maximum MFI (human B7-H4) [MFI]	EC50 (human 4-1BB [3]) [nM]	Maximum MFI (human 4-1BB [3]) [MFI]	also measured
PR001836 (antibody, human IgG1, V domains shown, anti-4-1BB HCAb, human IgG1 Fc) VH: EVQLLESGGGLVQPGGSLRLSCAASGFIFSNFAMTWVRQPPEKGLKWVSSINGSGFNTYYTDSVKGRFTISRDNSRNTLYLQMNRLTAEDTAVYFCAKEGSSETDDHYYNVDVWGQGTTVTVSS									EC50 (human 4-1BB [1]): 0.28 nM; Maximum MFI (human 4-1BB [1]): 1830 MFI; EC50 (cynomolgus monkey 4-1BB [2]): 2.41 nM; Maximum MFI (cynomolgus monkey 4-1BB [2]): 15900 MFI
PR002037 (antibody, human IgG1, kappa, V domains shown, also called 1025_B-1H11 clone) VH: QVQLVQSGAEVKKPGSSMRVSCKASEDTFSSYAISWVRQAPGQGLEWMGGTAPIFGTTNYAQKFQGRVTITADKSTSTAYMELSSLRSEDTAVYYCARGGPYFDYWGQGTLVTVSS VL: EIVMTQSPASLSVSPGERATLSCRASQSVSSNLAWYQQKPGQAPRLLIYGASTRATGIPARVSGGGSGTEFTLTISSLQSEDFAVYCCQQYKNWPFTFGPGTKLEIKR	2.57	1.69e+06	2.38	1.92e+06	2.22	257000			
PR002410 (antibody, human IgG1, kappa, V domains shown, anti-B7-H4 H2L2 recombinant fully human antibody, human IgG1 / kappa; also called PR002037 variant) VH: QVQLVQSGAEVKKPGSSMRVSCKASEDTFSSYAISWVRQAPGQGLEWMGGTAPIFGTTNYAQKFQGRVTITADKSTSTAYMELSSLRSEDTAVYYCARGGPYFDYWGQGTLVTVSS VL: EIVMTQSPASLSVSPGERATLSCRASQSVSSNLAWYQQKPGQAPRLLIYGASTRATGIPARVSGGGSGTEFTLTISSLQSEDFAVYYCQQYKNWPFTFGPGTKLEIKR	2.38	1.55e+06	2.08	1.86e+06	1.87	245000			
PR001767 (antibody, human IgG1, V domains shown, anti-4-1BB HCAb, human IgG1 Fc) VH: EVQLVETGGGLIQPGGSLRLSCAASGFTVSSNYMSWVRQAPGKGLEWVSVIYSDGSTYYADSVKGRFTISRDNSKNTLYLQMNSLRAEDTAVYYCARDRYYGSGNYPTAYYGMDVRGQGTTVTVSS							5.87	1450	EC50 (cynomolgus monkey 4-1BB [4]): 25 nM; Maximum MFI (cynomolgus monkey 4-1BB [4]): 68400 MFI
PR001476 (antibody, human IgG1, kappa, V domains shown, anti-B7-H4 H2L2 recombinant fully human antibody, human IgG1 / kappa; also called 80C8-2E9 clone) VH: QVQLVESGGGVVQPGRSLRLSCAASGFTFRSFGMHWVRQAPGKGLEWVAVISYDGSNEYYADSVKGRFIISRDNSKDTLYLQMNSLRAGDTAVYYCAKGGGLRWYFAYWGQGTLVTVSS VL: EIVMTQSPATLSVSPGERATLSCRASQSISSNLGWYQQKPGQAPRLLIYGASTRATGIPARFSGSGSGTEFTLTISSLQSEDFAVYYCQQYNSWPPLTFGGGTKVEIKR	3.61	353000	1.1	1.82e+06	0.367	239000			
PR001764 (antibody, human IgG1, V domains shown, anti-4-1BB HCAb, human IgG1 Fc) VH: EVQLLESGGGLVQPGGSLRLSCAASGFTFSSYAMSWVRQAPEKGLEWVSAISGGGGSTYYADSVKGRFTISRDNSKNTLYLQMDSLKAEDTAVYYCAKEGTTETDDYHYNMDVWGQGTTVTVSS							0.249	1560	EC50 (cynomolgus monkey 4-1BB [4]): 5.33 nM; Maximum MFI (cynomolgus monkey 4-1BB [4]): 77300 MFI
PR001833 (antibody, human IgG1, V domains shown, anti-4-1BB HCAb, human IgG1 Fc) VH: EVQLLESGGGLVQPGGSLRLSCAASGFTFSSYAMSWVRQAPEKGLEWVSSISGSGGSTFYADSVKGRFTISRDNSKNTLYLQMNSLRAEDTAVYFCAKEGATETDDYHFNTDVWGQGTTVTVSS									EC50 (human 4-1BB [5]): 0.21 nM; Maximum MFI (human 4-1BB [5]): 1710 MFI; EC50 (cynomolgus monkey 4-1BB [2]): 1.02 nM; Maximum MFI (cynomolgus monkey 4-1BB [2]): 12600 MFI
PR001768 (antibody, human IgG1, V domains shown, anti-4-1BB HCAb, human IgG1 Fc) VH: EVQLLESGGGLVQPGGSLRLSCAASGFTFSNYAMTWVRQAPGKGLEWVSSISGSGDSTYYADSVKGRFTISRDNSKNTLYLQMNSLRAEDTAVYYCAKEGTGTTSDYYYNVDVWGQGTTVTVSS							0.846	1550	EC50 (cynomolgus monkey 4-1BB [6]): 6.97 nM; Maximum MFI (cynomolgus monkey 4-1BB [6]): 62200 MFI
